Source: US20230374151A1 (GlaxoSmithKline, published 2023)

Experiments:
[1] = target: T1, TnMUC1 (aberrantly glycosylated MUC1) on tumour cells (human, UniProt P15941 24-1255, truncated Tn / sialyl-Tn O-glycans on Ser/Thr (aberrant glycosylation)); assay: flow cytometry on TnMUC1-positive Jurkat cells, His-tagged scFv pre-complexed with anti-His-PE, n=1 representative
T1 construct: whole, on cells; also called Tn/STnMUC-1; TnMUC1-positive MDA-MB-468 cells

[2] = target: T1, TnMUC1 (aberrantly glycosylated MUC1) …; assay: flow cytometry on MDA-MB-468 cells, scFv pre-complexed with anti-His-PE; experiment 75-13
Protocol: (§1) Cells were detached and cells were re-suspended in appropriate cell culture media or transferred to Falcon tube. A sample of each cell suspension was then diluted 1:5 with DPBS (to give a final volume of 0.5 mL) and the number of viable cells per mL (based on trypan blue exclusion) were determined for each cell suspension using the Vi-CELL XR Cell Viability Analyser (Default cell type setting used). Cell suspensions were then diluted in appropriate cell culture media and seeded into fresh cell culture flasks at a density of 6.25×10⁴ viable cells per cm². Cells were incubated in a humidified incubator at 37° C. with 5% CO₂ for 48 hours (or until required). On the day of assay, cells were detached from flasks, resuspended in appropriate cell culture media (if appropriate) and the number of viable cells per mL counted as described previously. Cell suspensions were then centrifuged at 500×g for 5 minutes before resuspending cell pellets in FACS Buffer at a density of 4×10⁶ viable cells per mL.
(§2) scFv proteins were diluted to 62.5 nM in DPBS and dispensed into row A of a 96-well V-bottom plate before performing a 1:4 serial dilution in FACS Buffer down the plate to give 25 μL (final volume) per well (FACS Buffer in row H only). […]

[3] = target: T1, TnMUC1 (aberrantly glycosylated MUC1) …; assay: flow cytometry on MDA-MB-468 cells, scFv pre-complexed with anti-His-PE; mean
Protocol: as §1, §2

[4] = target: T1, TnMUC1 (aberrantly glycosylated MUC1) …; assay: flow cytometry on MDA-MB-468 cells, scFv pre-complexed with anti-His-PE; experiment 75-14
Protocol: as §1, §2

T1 sequence (P15941 24-1255): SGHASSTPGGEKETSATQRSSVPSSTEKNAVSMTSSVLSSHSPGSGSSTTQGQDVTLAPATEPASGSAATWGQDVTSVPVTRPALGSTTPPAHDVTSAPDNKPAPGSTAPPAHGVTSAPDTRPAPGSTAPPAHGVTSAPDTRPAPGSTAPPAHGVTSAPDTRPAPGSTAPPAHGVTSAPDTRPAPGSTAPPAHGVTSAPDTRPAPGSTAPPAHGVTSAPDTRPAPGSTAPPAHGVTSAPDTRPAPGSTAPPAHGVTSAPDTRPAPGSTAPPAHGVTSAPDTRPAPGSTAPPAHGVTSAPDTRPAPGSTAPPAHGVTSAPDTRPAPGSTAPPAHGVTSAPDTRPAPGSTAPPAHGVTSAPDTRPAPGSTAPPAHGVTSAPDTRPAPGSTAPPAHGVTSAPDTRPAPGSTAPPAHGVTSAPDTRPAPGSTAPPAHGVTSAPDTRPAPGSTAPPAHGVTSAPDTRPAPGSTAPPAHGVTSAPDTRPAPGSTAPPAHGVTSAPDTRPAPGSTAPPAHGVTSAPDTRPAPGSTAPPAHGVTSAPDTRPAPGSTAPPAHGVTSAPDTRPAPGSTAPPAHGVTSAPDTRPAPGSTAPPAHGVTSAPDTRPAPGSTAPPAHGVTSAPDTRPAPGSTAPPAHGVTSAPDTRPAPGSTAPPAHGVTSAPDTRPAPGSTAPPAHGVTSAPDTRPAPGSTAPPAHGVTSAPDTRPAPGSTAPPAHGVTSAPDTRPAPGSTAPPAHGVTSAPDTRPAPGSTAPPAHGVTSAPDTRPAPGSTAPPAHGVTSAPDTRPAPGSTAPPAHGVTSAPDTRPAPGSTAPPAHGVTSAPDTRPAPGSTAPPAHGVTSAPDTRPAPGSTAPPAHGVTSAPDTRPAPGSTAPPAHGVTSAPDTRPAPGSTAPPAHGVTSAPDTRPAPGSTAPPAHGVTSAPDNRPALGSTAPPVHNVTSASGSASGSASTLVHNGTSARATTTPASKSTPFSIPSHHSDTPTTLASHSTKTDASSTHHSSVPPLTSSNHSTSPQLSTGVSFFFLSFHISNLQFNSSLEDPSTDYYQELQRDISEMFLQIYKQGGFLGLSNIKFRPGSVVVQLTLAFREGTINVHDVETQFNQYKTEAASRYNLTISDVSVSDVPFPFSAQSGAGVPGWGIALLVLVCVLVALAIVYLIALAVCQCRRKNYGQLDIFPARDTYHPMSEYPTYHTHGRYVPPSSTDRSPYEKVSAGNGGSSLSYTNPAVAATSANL

B1: humanised anti-TnMUC1 scFv protein 9P1 (88A), VL-VH humanised control (scFv)
scFv: DIVMTQSPDSLAVSLGERATINCKSSQSLLNSGDQKNYLTWYQQKPGQPPKLLIYWASTRESGVPDRFSGSGSGTDFTLTISSLQAEDVAVYYCQNDYSYPLTFGQGTKVEIKGGGGSGGGGSGGGGSGGGGSQVQLVQSGAEVKKTGSSVKVSCKASGYTFTDHAIHWVRQAPGQALEWMGHFSPGNTDIKYNDKFKGRVTLTVDRSMSTAYMELSSLRSEDTAMYYCKTSTFFFDYWGQGTMVTVSSAAAHHHHHH
notes: Control scFv designed from a humanised antibody of WO2015/159076 (10D2 is said to come from Ab2, so 10D1 by implication from Ab1); Neat supernatant of construct 10D1 in the Octet assay; purified protein 9P1 in Biacore and flow cytometry; also called 10D1
- EC50 (read off the curve) [1]: ~6 nM
- EC50 [2]: 3 nM
- pEC50 [2]: 8.52
- EC50 [3]: 3.09 nM
- pEC50 [3]: 8.51
- EC50 [4]: 3.18 nM
- pEC50 [4]: 8.5
